In patent US6881402:

Target: human Fas (human) (UniProt P25445)
Experiment: cell-based or functional assay

Chain of UniProt P25445 (P25445 26-335): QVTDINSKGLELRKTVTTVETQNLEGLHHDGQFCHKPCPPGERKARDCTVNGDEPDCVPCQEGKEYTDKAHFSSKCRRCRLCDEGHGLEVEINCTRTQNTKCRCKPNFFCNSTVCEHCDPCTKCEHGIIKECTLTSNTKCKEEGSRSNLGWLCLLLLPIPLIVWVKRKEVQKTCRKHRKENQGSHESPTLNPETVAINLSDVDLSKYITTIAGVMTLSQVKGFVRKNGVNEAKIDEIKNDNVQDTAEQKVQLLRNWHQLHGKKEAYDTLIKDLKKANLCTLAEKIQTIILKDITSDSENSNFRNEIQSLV

apoptotic nuclei (DAPI) in MCF7-Fas cells transfected with pMT2 alone, treated 9 h with CH-11 (500 ng/ml) plus cycloheximide: 62%
Substance: CH-11 agonist mAb to Fas (Panvera, Madison, WI) (antibody)
